In assay [1] the target is FLAG-tagged full-length AFDN (mouse) (UniProt Q9QZQ1). Kind of assay: co-IP; HEK 293T cells co-transfected; anti-FLAG IP on Protein G sepharose, Western blot with anti-GFP or antibodies to the endogenous protein; TX100 buffer (20 mM Tris pH 7.5, 150 mM NaCl, 1% NP-40, 1% Triton X-100, 5 mM MgCl2 for GTPases); also after FastAP phosphatase treatment of lysates; with or without co-expressed GTPases (densitometry in Fig. 4g). A general note: A western blot detects proteins with antibodies after separation by electrophoresis.
FLAG-tagged full-length AFDN (mouse), sequence (Q9QZQ1 whole entry): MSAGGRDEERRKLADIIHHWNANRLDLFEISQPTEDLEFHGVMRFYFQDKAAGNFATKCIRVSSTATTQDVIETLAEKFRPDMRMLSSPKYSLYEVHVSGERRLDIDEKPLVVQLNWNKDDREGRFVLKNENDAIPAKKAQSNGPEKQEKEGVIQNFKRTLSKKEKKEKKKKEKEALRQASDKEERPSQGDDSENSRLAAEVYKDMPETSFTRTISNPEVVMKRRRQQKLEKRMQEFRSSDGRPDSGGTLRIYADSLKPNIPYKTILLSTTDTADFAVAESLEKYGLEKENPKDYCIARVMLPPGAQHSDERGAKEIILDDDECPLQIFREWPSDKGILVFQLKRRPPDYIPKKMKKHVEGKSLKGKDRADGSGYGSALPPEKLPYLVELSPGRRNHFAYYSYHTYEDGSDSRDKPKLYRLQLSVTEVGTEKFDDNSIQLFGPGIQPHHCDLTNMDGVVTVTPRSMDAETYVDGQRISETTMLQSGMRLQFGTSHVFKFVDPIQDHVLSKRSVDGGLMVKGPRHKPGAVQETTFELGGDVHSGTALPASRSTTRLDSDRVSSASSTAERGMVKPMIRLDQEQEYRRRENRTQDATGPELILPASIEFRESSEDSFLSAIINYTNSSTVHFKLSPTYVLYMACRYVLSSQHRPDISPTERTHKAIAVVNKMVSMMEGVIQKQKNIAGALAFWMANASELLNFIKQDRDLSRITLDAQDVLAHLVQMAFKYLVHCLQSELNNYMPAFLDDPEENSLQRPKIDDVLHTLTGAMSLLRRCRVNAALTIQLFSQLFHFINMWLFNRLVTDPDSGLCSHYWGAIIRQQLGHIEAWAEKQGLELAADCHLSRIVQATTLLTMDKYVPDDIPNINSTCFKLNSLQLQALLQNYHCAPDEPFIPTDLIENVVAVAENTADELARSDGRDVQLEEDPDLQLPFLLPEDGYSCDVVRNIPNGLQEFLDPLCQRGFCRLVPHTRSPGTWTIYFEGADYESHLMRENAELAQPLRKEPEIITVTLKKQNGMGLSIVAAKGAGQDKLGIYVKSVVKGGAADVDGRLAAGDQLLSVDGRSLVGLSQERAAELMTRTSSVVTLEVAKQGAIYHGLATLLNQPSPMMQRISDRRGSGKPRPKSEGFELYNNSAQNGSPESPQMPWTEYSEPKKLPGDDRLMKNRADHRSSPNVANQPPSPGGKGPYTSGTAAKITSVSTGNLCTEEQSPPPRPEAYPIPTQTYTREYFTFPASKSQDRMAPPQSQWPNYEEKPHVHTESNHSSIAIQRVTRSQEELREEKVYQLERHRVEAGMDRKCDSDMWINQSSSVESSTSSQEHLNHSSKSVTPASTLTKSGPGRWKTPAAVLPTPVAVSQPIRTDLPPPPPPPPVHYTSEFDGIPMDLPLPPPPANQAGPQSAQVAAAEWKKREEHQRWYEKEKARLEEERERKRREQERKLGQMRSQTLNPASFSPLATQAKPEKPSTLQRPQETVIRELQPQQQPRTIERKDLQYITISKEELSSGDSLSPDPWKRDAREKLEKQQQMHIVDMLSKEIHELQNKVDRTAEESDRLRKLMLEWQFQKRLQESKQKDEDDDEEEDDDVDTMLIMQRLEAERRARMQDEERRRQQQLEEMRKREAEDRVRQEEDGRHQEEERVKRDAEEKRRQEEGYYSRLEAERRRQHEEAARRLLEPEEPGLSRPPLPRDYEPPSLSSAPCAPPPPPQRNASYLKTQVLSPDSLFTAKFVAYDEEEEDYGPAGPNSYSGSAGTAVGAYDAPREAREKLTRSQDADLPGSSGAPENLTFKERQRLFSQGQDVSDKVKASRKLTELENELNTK

Assay [2] addresses purified AFDN FHA domain Δex9 (mouse). Nature of the assay: ITC; MicroCal ITC200, 25 °C, 20 mM Tris-HCl pH 7.5, 150 mM NaCl, 1 mM DTT. For orientation: In ITC the heat of successive injections is recorded.

purified SCRIB PDZ1 domain (718-820), sequence (Q14160 718-820): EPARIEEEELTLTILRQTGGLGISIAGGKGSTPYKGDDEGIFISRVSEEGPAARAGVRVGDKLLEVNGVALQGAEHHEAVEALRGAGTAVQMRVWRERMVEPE

In the case of “EGFP-tagged full-length SCRIB (from UniProt Q14160 1-1655) (natural protein)”, in assay [1], the fold increase of SCRIB co-precipitated with AFDN, KRAS-G12V co-expressed, against wild-type KRAS was 8 fold; the fold increase of SCRIB co-precipitated with AFDN, RAP1B-G12V co-expressed, against wild-type KRAS came out at 1.7 fold; the fold increase of SCRIB co-precipitated with AFDN, RAP2C-G12V co-expressed, against wild-type KRAS was 2.6 fold.

Regarding “purified SCRIB PDZ1 domain (718-820) (from UniProt Q14160 718-820) (domain or fragment)”, in assay [2], the Kd is 22.9 µM.

For orientation: Kd means the constant that tells how readily two partners part at equilibrium.

The values are drawn from PMC9355967.
